Measurements reported in the Human Domainome abundance scans (Beltran et al. 2025).
± gives the uncertainty stated by the source.

B1: Histone-lysine N-methyltransferase SETD2, residues 2382 to 2430; numbered along this chain, Q9BYW2 (parent)
chain: SPPKPKTIVLPPNWKTARDPEGKIYYYHVITRQTQWDPPTWESPGDDAS

Variants of: B1
Test: abundance fitness (aPCA) (normalised: wild type 0, dead -1); higher = more abundant; growth selection in yeast, the domain comes from the species named
Details: Homo sapiens
Work on P44N yielded an abundance fitness of -0.196 ± 0.1. With P44R the abundance fitness was -0.031 ± 0.054. P44T showed an abundance fitness of -0.103 ± 0.083. P44I gave an abundance fitness of -0.452 ± 0.18. P44S gave an abundance fitness of -0.166 ± 0.054. Variant P44G has an abundance fitness of -0.128 ± 0.047. P44F showed an abundance fitness of -0.654 ± 0.25. Variant P44V has an abundance fitness of -0.263 ± 0.042. For P44A, the abundance fitness was -0.115 ± 0.071. Work on P44H yielded an abundance fitness of 0.036 ± 0.097. In the case of P44M, the abundance fitness is reported as -0.016 ± 0.038. In the case of P44E, the abundance fitness is reported as -0.096 ± 0.075. For P44Q, the abundance fitness was -0.067 ± 0.087. A48C showed an abundance fitness of 0.085 ± 0.044. A48N gave an abundance fitness of 0.153 ± 0.097. Work on A48L yielded an abundance fitness of -0.077 ± 0.056. For A48W, the abundance fitness was -0.07 ± 0.072. In the case of A48H, the abundance fitness is reported as -0.081 ± 0.14. A48Q showed an abundance fitness of -0.153 ± 0.1. With A48E the abundance fitness was 0.1 ± 0.036. Work on A48F yielded an abundance fitness of -0.094 ± 0.068. A48G showed an abundance fitness of -0.014 ± 0.054. Work on A48S yielded an abundance fitness of -0.027 ± 0.067. In the case of A48V, the abundance fitness is reported as -0.164 ± 0.057. A48Y showed an abundance fitness of 0.036 ± 0.048. With A48R the abundance fitness was 0.107 ± 0.057. A48K showed an abundance fitness of 0.091 ± 0.047. Work on A48M yielded an abundance fitness of 0.151 ± 0.09. A48D showed an abundance fitness of 0.1 ± 0.12. With A48T the abundance fitness was 0.147 ± 0.041. In the case of A48P, the abundance fitness is reported as 0.08 ± 0.072. With A48I the abundance fitness was 0.095 ± 0.16. With W41A the abundance fitness was 0.07 ± 0.058. With W41V the abundance fitness was 0.077 ± 0.035. Work on W41G yielded an abundance fitness of 0.034 ± 0.051. Variant W41Q has an abundance fitness of 0.249 ± 0.04. For W41R, the abundance fitness was 0.091 ± 0.036. With W41D the abundance fitness was 0.06 ± 0.1. Work on W41L yielded an abundance fitness of 0.078 ± 0.033. Variant W41H has an abundance fitness of 0.117 ± 0.081. In the case of W41F, the abundance fitness is reported as 0.334 ± 0.092. Work on W41S yielded an abundance fitness of 0.195 ± 0.042. For W41I, the abundance fitness was 0.05 ± 0.069. W41Y gave an abundance fitness of 0.338 ± 0.084. For W41P, the abundance fitness was -0.058 ± 0.095. W41K gave an abundance fitness of 0.165 ± 0.041. In the case of W41C, the abundance fitness is reported as 0.04 ± 0.045. W41M showed an abundance fitness of 0.16 ± 0.033. With W41E the abundance fitness was 0.166 ± 0.046. S49A showed an abundance fitness of -0.418 ± 0.093. Work on S49F yielded an abundance fitness of -0.391 ± 0.099. In the case of S49T, the abundance fitness is reported as -0.013 ± 0.045. S49I gave an abundance fitness of -0.088 ± 0.048. Variant S49Y has an abundance fitness of -0.194 ± 0.067. Variant S49M has an abundance fitness of -0.154 ± 0.33. S49V gave an abundance fitness of -0.62 ± 0.19. Variant S49R has an abundance fitness of -0.158 ± 0.11. S49E showed an abundance fitness of -0.279 ± 0.19. In the case of S49Q, the abundance fitness is reported as -0.031 ± 0.2. Work on S49C yielded an abundance fitness of -0.467 ± 0.14. Work on S49P yielded an abundance fitness of 0.043 ± 0.05. Work on S49N yielded an abundance fitness of -0.696 ± 0.2. P38I gave an abundance fitness of -0.111 ± 0.04. P38A gave an abundance fitness of -0.126 ± 0.036. Variant P38W has an abundance fitness of -0.184 ± 0.059. Variant P38Q has an abundance fitness of -0.255 ± 0.069. Work on P38C yielded an abundance fitness of -0.221 ± 0.11. With P38H the abundance fitness was -0.039 ± 0.14. P38E showed an abundance fitness of -0.493 ± 0.12. P38Y gave an abundance fitness of -0.228 ± 0.11. P38T gave an abundance fitness of -0.398 ± 0.15. For P38V, the abundance fitness was -0.108 ± 0.034. P38N showed an abundance fitness of -0.651 ± 0.33. In the case of P38L, the abundance fitness is reported as -0.396 ± 0.052. In the case of P38R, the abundance fitness is reported as -0.251 ± 0.034. P38G showed an abundance fitness of -0.693 ± 0.051. With P38M the abundance fitness was -0.043 ± 0.077. Variant P38F has an abundance fitness of -0.143 ± 0.094. In the case of P38D, the abundance fitness is reported as -0.836 ± 0.15. For P38K, the abundance fitness was -0.121 ± 0.044. In the case of T40R, the abundance fitness is reported as -0.019 ± 0.033. T40I gave an abundance fitness of -0.629 ± 0.17. Variant T40V has an abundance fitness of 0.057 ± 0.048. For T40H, the abundance fitness was 0.155 ± 0.036. In the case of T40F, the abundance fitness is reported as -0.251 ± 0.1. For T40M, the abundance fitness was 0 ± 0.044. For T40P, the abundance fitness was 0.017 ± 0.076. With T40E the abundance fitness was 0.12 ± 0.043. In the case of T40N, the abundance fitness is reported as 0.045 ± 0.1. With T40S the abundance fitness was 0.062 ± 0.056. For T40G, the abundance fitness was 0.064 ± 0.054. With T40Q the abundance fitness was 0.277 ± 0.08. Work on T40D yielded an abundance fitness of -0.342 ± 0.14. With T40Y the abundance fitness was -0.123 ± 0.075. T40A showed an abundance fitness of 0.15 ± 0.039. Work on T40L yielded an abundance fitness of -0.071 ± 0.042. T40W showed an abundance fitness of -0.232 ± 0.035. T40C showed an abundance fitness of 0.151 ± 0.061. D46T gave an abundance fitness of -0.292 ± 0.087. D46L showed an abundance fitness of -0.053 ± 0.033. D46Y gave an abundance fitness of -0.436 ± 0.14. Work on D46G yielded an abundance fitness of -0.119 ± 0.032. D46F gave an abundance fitness of -0.361 ± 0.13. With D46M the abundance fitness was -0.297 ± 0.092. D46S showed an abundance fitness of -0.167 ± 0.039. For D46I, the abundance fitness was -0.164 ± 0.066. Work on D46K yielded an abundance fitness of -0.166 ± 0.093. With D46N the abundance fitness was -0.11 ± 0.043. For D46P, the abundance fitness was -0.069 ± 0.044. For D46V, the abundance fitness was -0.064 ± 0.042. Work on D46C yielded an abundance fitness of -0.31 ± 0.042. In the case of D46E, the abundance fitness is reported as -0.117 ± 0.068. For D46H, the abundance fitness was 0.119 ± 0.1. For D46W, the abundance fitness was -0.358 ± 0.084. Work on D46Q yielded an abundance fitness of -0.358 ± 0.1. In the case of D46R, the abundance fitness is reported as -0.286 ± 0.046. With T34E the abundance fitness was -0.394 ± 0.062. Work on T34P yielded an abundance fitness of -0.29 ± 0.068. In the case of T34R, the abundance fitness is reported as 0.109 ± 0.045. With T34Q the abundance fitness was -0.111 ± 0.042. Variant T34G has an abundance fitness of -0.379 ± 0.039. Work on T34H yielded an abundance fitness of -0.059 ± 0.064. For T34I, the abundance fitness was -0.149 ± 0.079. For T34N, the abundance fitness was -0.493 ± 0.22. Work on T34V yielded an abundance fitness of -0.075 ± 0.052. With T34M the abundance fitness was 0.188 ± 0.077. T34Y gave an abundance fitness of -0.52 ± 0.16. T34L showed an abundance fitness of -0.342 ± 0.047. In the case of T34K, the abundance fitness is reported as -0.605 ± 0.29. With T34W the abundance fitness was -0.18 ± 0.036. For T34F, the abundance fitness was -0.059 ± 0.061. S43G gave an abundance fitness of -0.15 ± 0.05. Work on S43Y yielded an abundance fitness of -0.263 ± 0.097. S43K gave an abundance fitness of 0.145 ± 0.042. With S43P the abundance fitness was -0.321 ± 0.094. In the case of S43R, the abundance fitness is reported as -0.11 ± 0.042. Work on S43A yielded an abundance fitness of -0.048 ± 0.041. S43V gave an abundance fitness of -0.045 ± 0.055. For S43Q, the abundance fitness was 0.091 ± 0.08. Variant S43L has an abundance fitness of -0.064 ± 0.042. S43F showed an abundance fitness of -0.375 ± 0.071. With S43N the abundance fitness was -0.369 ± 0.13. Variant S43D has an abundance fitness of 0.078 ± 0.075. For S43H, the abundance fitness was -0.237 ± 0.11. Work on S43E yielded an abundance fitness of 0.193 ± 0.056. In the case of S43M, the abundance fitness is reported as -0.102 ± 0.076. Work on S43I yielded an abundance fitness of -0.095 ± 0.041. With S43W the abundance fitness was -0.23 ± 0.088. Variant S43C has an abundance fitness of -0.471 ± 0.11. With S43T the abundance fitness was -0.061 ± 0.082. With W36E the abundance fitness was -0.027 ± 0.037. In the case of W36H, the abundance fitness is reported as 0.33 ± 0.079. W36C showed an abundance fitness of -0.08 ± 0.045. W36M gave an abundance fitness of -0.382 ± 0.11. In the case of W36F, the abundance fitness is reported as 0.321 ± 0.062. With W36D the abundance fitness was -0.015 ± 0.032. Variant W36S has an abundance fitness of 0.171 ± 0.033. W36G gave an abundance fitness of -0.152 ± 0.039. Variant W36I has an abundance fitness of 0.139 ± 0.064. For W36T, the abundance fitness was -0.05 ± 0.046. For W36Y, the abundance fitness was 0.203 ± 0.042. W36A showed an abundance fitness of -0.239 ± 0.07. Variant W36R has an abundance fitness of 0.139 ± 0.045. W36L showed an abundance fitness of -0.082 ± 0.032. W36K showed an abundance fitness of -0.006 ± 0.056. For W36Q, the abundance fitness was -0.139 ± 0.048. For W36V, the abundance fitness was 0.083 ± 0.042.
